# Assay results published in the supplement of paper PMC10567573.
# B1: CLK3 WT (peptide)
# chain: FGEDYYGPSRSRHRRRSRERGPYR
# B2: CDC34 WT (peptide)
# chain: GGYFKARLKFPIDYPYSPPAFRFL
# B3: CDKN1A WT (peptide)
# chain: GRKRRQTSMTDFYHSKRRLIFSKR
# B4: FAM50A WT (peptide)
# chain: KKREKQREQMEQMKQRIAEENIMK
# B5: CASP6 WT (peptide)
# chain: TCADRDNLTRRFSDLGFEVKCFND
# B6: PHTF1 WT (peptide)
# chain: RVKLISNKGTETDNDPSCVHPIIK
# B7: FAM164A WT (peptide)
# chain: YDPDYIQCPYCQRRFNENAADRHI
# B8: TPD52L2 WT (peptide)
# chain: EAEEEELRAELTKVEEEIVTLRQV
# B9: VTI1B WT (peptide)
# chain: ANETLAEMEEELRYAPLSFRNPMM
# B10: MNAT1 WT (peptide)
# chain: LAPIHKLEEALYEYQPLQIETYGP
# B11: ZNF207 WT (peptide)
# chain: YQGGPPRPPMGMRPPVMSQGGRY
# B12: MNAT1 WT (peptide)
# chain: LEEALYEYQPLQIETYGPHVPELE
# B13: FAM50A WT (peptide)
# chain: KALEILRKDFSELRSAGVEQLMYI
# B14: NCK2 WT (peptide)
# chain: YTGPSSSGRFAGREWYYGNVTRHQ
# B15: MLH1 WT (peptide)
# chain: YNIATRRKALKNPSEEYGKILEVV
# B16: PI4K2A WT (peptide)
# chain: FVKDPQGRIIAVFKPKNEEPYGHL
# B17: ZNF24 WT (peptide)
# chain: YGETCFPKGRFERKRNPSRKKQHI
# B18: UFD1L WT (peptide)
# chain: EAGGRFVAFSGEGQSLRKKGRKP
# B19: ZNF24 WT (peptide)
# chain: THTKEQILELVVLEQFVAILPKEL
# B20: CCND1 WT (peptide)
# chain: PEAEENKQIIRKHAQTFVALCATD
# B21: TSN WT (peptide)
# chain: FVELQGFLAAEQDIREEIRKVVQS
# B22: KRT18 WT (peptide)
# chain: RAQYDELARKNREELDKYWSQQIE
# B23: SEC22B WT (peptide)
# chain: AKQLFRKLNEQSPTRCTLEAGAMT
# B24: ELF3 WT (peptide)
# chain: LSKEYWDCLEGKKSKHAPRGTHLW
# B25: NCK2 WT (peptide)
# chain: YVERKNSLKKGSLVKNLKDTLGLG
# B26: TMEM106C WT (peptide)
# chain: YVTTNVSLIPPRSEQLVNFTGKAE
# B27: ZNF207 WT (peptide)
# chain: FQPQPVQPQQGYIPPMAQPGLPPV
# B28: EMD WT (peptide)
# chain: YQSKGYNDDYYEESYFTTRTYGEP
# B29: VTI1B WT (peptide)
# chain: NKLLLSIIILLELAILGGLVYYKF
# B30: FEM1A WT (peptide)
# chain: NIVEYLIQEQPGQEQVAGGEAQPG
# B31: ZNF207 WT (peptide)
# chain: FPSAGQAQAAVQGPVGTDFKPLNS
# B32: TSN WT (peptide)
# chain: AFVVYLETETLVTREAVTEILGIE
# B33: PHTF1 WT (peptide)
# chain: SRHLNSQVKKTTTRWCHIVRDSDS
# B34: CIB1 WT (peptide)
# chain: DLSRLVNCLTGEGEDTRLSASEMK
# B35: FLOT1 WT (peptide)
# chain: QMAKKAEAFQLYQEAAQLDMLLEK
# B36: ELF3 WT (peptide)
# chain: RLVYKFGKNSSGWKEEEVLQSRN
# B37: TMEM106C WT (peptide)
# chain: FTGRDSITCLTCQGTGYIPTEQVN
# B38: TSN WT (peptide)
# chain: FLAAEQDIREEIRKVVQSLEQTAR
# B39: MCOLN1 WT (peptide)
# chain: EEEDLRRRLKYFFMSPCDKFRAKG
# B40: MNAT1 WT (peptide)
# chain: SLREYNDFLEEVEEIVFNLTNNVD
# B41: FEM1A WT (peptide)
# chain: PCCSSSPEEPLNGESYESCCPTSR
# B42: CCND1 WT (peptide)
# chain: IRRAYPDANLLNDRVLRAMLKAEE
# B43: ZNF207 WT (peptide)
# chain: CHICHKKLYTGPGLAIHCMQVHKE
# B44: KRT18 WT (peptide)
# chain: PQVRDWSHYFKIIEDLRAQIFANT
# B45: TMEM106C WT (peptide)
# chain: TVPEILVHNIVIFMRTSVKISYIG
# B46: CDKN1A WT (peptide)
# chain: RRQTSMTDFYHSKRRLIFSKRKP
# B47: KRT18 WT (peptide)
# chain: RVRSLETENRRLESKIREHLEKKG
# B48: FAM50A WT (peptide)
# chain: HIFPASRWEPYDPEKKWDKYTIR
# B49: SEC22B WT (peptide)
# chain: FPKKLAFAYLEDLHSEFDEQHGKK
# B50: RAB40B WT (peptide)
# chain: YSLTTSSTHKRSSLRKVKLVRPPQ
# B51: KRT18 WT (peptide)
# chain: KSQDLAKIMADIRAQYDELARKNR
# B52: TMEM106C WT (peptide)
# chain: SEQLVNFTGKAEMGGPFSYVYFFC
# B53: PDLIM7 WT (peptide)
# chain: AAGGVPGGGSNNGKTPVCHQCHKV
# Test: protein stability index of a GFP-peptide fusion (GPS, HEK-293T) (PSI 1-6); higher = more stable
# 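Note: lentivirally expressed fusions sorted by FACS into six bins by GFP to DsRed ratio, PSI derived from sequencing read proportions per bin multiplied by bin number.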
protein,measurement,setting,value
B1,protein stability index,"parent: IOH4008_14, c terminus: a fixed tail appended",2.64
B2,protein stability index,"parent: IOH1870_10, c terminus: a fixed tail appended",2.41
B3,protein stability index,"parent: IOH5068_24, c terminus: a fixed tail appended",3.14
B4,protein stability index,"parent: IOH4655_4, c terminus: a fixed tail appended",4.67
B5,protein stability index,"parent: IOH3453_12, c terminus: a fixed tail appended",3.21
B6,protein stability index,"parent: IOH4271_36, c terminus: a fixed tail appended",4.06
B7,protein stability index,"parent: IOH3371_20, c terminus: a fixed tail appended",4.12
B8,protein stability index,"parent: IOH3163_8, c terminus: a fixed tail appended",4.06
B9,protein stability index,"parent: IOH5143_10, c terminus: a fixed tail appended",1.94
B10,protein stability index,"parent: IOH3100_40, c terminus: a fixed tail appended",1.96
B11,protein stability index,"parent: IOH3584_75, c terminus: native",1.94
B12,protein stability index,"parent: IOH3100_41, c terminus: a fixed tail appended",2.7
B13,protein stability index,"parent: IOH4655_39, c terminus: a fixed tail appended",2.56
B14,protein stability index,"parent: IOH4659_46, c terminus: a fixed tail appended",1.78
B15,protein stability index,"parent: IOH3190_27, c terminus: a fixed tail appended",2.51
B16,protein stability index,"parent: IOH5080_24, c terminus: a fixed tail appended",1.76
B17,protein stability index,"parent: IOH4871_39, c terminus: a fixed tail appended",2.65
B18,protein stability index,"parent: IOH4744_50, c terminus: native",1.91
B19,protein stability index,"parent: IOH4871_15, c terminus: a fixed tail appended",2.8
B20,protein stability index,"parent: IOH1962_29, c terminus: a fixed tail appended",2.89
B21,protein stability index,"parent: IOH3571_2, c terminus: a fixed tail appended",2.08
B22,protein stability index,"parent: IOH2946_43, c terminus: a fixed tail appended",3.04
B23,protein stability index,"parent: IOH3957_7, c terminus: a fixed tail appended",2.07
B24,protein stability index,"parent: IOH4879_43, c terminus: a fixed tail appended",2.74
B25,protein stability index,"parent: IOH4659_10, c terminus: a fixed tail appended",2.21
B26,protein stability index,"parent: IOH3247_29, c terminus: a fixed tail appended",1.77
B27,protein stability index,"parent: IOH3584_22, c terminus: a fixed tail appended",3.18
B28,protein stability index,"parent: IOH4676_15, c terminus: a fixed tail appended",2.23
B29,protein stability index,"parent: IOH5143_35, c terminus: a fixed tail appended",2.46
B30,protein stability index,"parent: IOH5115_39, c terminus: a fixed tail appended",4.27
B31,protein stability index,"parent: IOH3584_46, c terminus: a fixed tail appended",3.51
B32,protein stability index,"parent: IOH3571_18, c terminus: a fixed tail appended",2.25
B33,protein stability index,"parent: IOH4271_53, c terminus: a fixed tail appended",2.05
B34,protein stability index,"parent: IOH3143_22, c terminus: a fixed tail appended",3.05
B35,protein stability index,"parent: IOH4826_57, c terminus: a fixed tail appended",1.75
B36,protein stability index,"parent: IOH4879_62, c terminus: native",2.04
B37,protein stability index,"parent: IOH3247_8, c terminus: a fixed tail appended",1.83
B38,protein stability index,"parent: IOH3571_3, c terminus: a fixed tail appended",1.8
B39,protein stability index,"parent: IOH4733_7, c terminus: a fixed tail appended",2.28
B40,protein stability index,"parent: IOH3100_16, c terminus: a fixed tail appended",2
B41,protein stability index,"parent: IOH5115_46, c terminus: a fixed tail appended",3.71
B42,protein stability index,"parent: IOH1962_3, c terminus: a fixed tail appended",2.62
B43,protein stability index,"parent: IOH3584_7, c terminus: a fixed tail appended",3.29
B44,protein stability index,"parent: IOH2946_21, c terminus: a fixed tail appended",2.07
B45,protein stability index,"parent: IOH3247_35, c terminus: a fixed tail appended",3.44
B46,protein stability index,"parent: IOH5068_25, c terminus: native",2.54
B47,protein stability index,"parent: IOH2946_17, c terminus: a fixed tail appended",4.39
B48,protein stability index,"parent: IOH4655_56, c terminus: native",2.29
B49,protein stability index,"parent: IOH3957_14, c terminus: a fixed tail appended",2.61
B50,protein stability index,"parent: IOH1937_41, c terminus: a fixed tail appended",2.95
B51,protein stability index,"parent: IOH2946_41, c terminus: a fixed tail appended",2.6
B52,protein stability index,"parent: IOH3247_31, c terminus: a fixed tail appended",2.53
B53,protein stability index,"parent: IOH4706_45, c terminus: a fixed tail appended",2.61
